In one experiment the test system is 293T cells. The experiment is described as follows: Bax-induced apoptosis and caspase activation in transfected 293T cells. In kind it is cell-based, human. The settings on record: 24 hr; Bax alone about 25%; zVAD-fmk 50 μM. The protocol:
N-benzyloxycarbonyl-Val-Ala-Asp fluoromethylketone (zVAD-fmk; 50 μM) (Bachem Calif.; Torrance, Calif.) was added immediately after transfection of the Bax plasmid. Transfection efficiency was uniformly 80–90%, as determined by X-Gal staining following cotransfection with pCMV-βGal.
Cells were maintained in culture for 24 hr, then floating and attached cells were harvested and an aliquot was removed and the percent of dead cells was determined by either trypan blue or propidium iodide (PI) dye exclusion assay. A second aliquot was used to assess the percentage of apoptotic cells with subdiploid DNA content by FACS analysis of PI stained, ethanol fixed cells. The remaining cell pellets were lysed in 10 mM HEPES (pH 7.5), 142 mM KCl, 1 mM EGTA, 1 mM DTT, 0.2% NP-40, 0.1 mM PMSF and used for immunoblot analysis or for protease assays.

Experiment [1] has as its system DEVD-pNA hydrolysis activity in Jurkat T cell cytosolic extracts. The experiment is described as follows: Cytochrome c/dATP-induced caspase activation (DEVD-pNA hydrolysis) in Jurkat T cell cytosolic extracts. The format is biochemical. The settings on record: for DEVD-pNA hydrolysis, ΔA405 after 15 min: untreated ≈0.02; for DEVD-pNA hydrolysis, ΔA405 after 20 min: untreated ≈0.025. As to the method: (§1) Cells were washed with ice cold buffer A (20 mM Hepes (pH 7.5), 10 mM KCl, 1.5 mM MgCl2, 1 mM EDTA, 1 mM DTT and 0.1 mM PMSF) and suspended in 1 vol buffer A, then incubated on ice for 20 min. 293 cells were disrupted by passage 15× through a 26 gauge needle and Jurkat T cells were disrupted by dounce homogenization in 2 ml using 15 strokes with a pestle B. Cell extracts (10–15 mg total protein/ml) were clarified by centrifugation at 16,000×g for 30 min, then the NaCl concentration was increased by 50 mM. Cytosolic fractions were used immediately or stored frozen at −80° C.
(§2) Caspase activity was assayed by release of either 7-amino-4-trifluoromethyl-coumarin (AFC) or p-nitroanilide (pNA) from benzylyoxycarbonyl-DEVD (SEQ ID NO: 2) or benzylyoxycarbonyl-YVAD (SEQ ID NO: 3) synthetic peptides using a Molecular Devices Spectromax 340 for AFC labeled peptides or Perkin/Elmer LS50B for pNA labeled peptides (see Example II; see, also, Zhou et al., supra, 1997). Cytosolic extracts from 293 cells or Jurkat T cells were used directly (negative control) or were treated with 1 μM cytochrome c and 1 mM dATP or with cytochrome c, dATP and 0.2 μM GST-XIAP. Additional control reactions were performed by substituting 2 μM GST-Bcl-2, GST-Bax, GST-NM23 or GST-CD40 cytosolic domain, or 5 μM His6-S5a protein for GST-XIAP. DEVD-pNA hydrolysis was measured at various times and multiple experiments were performed using several different GST-XIAP preparations.

Experiment [2] has as its system HeLa cell nuclei in cytosolic extract. Put plainly: Apoptosis of isolated nuclei in cell-free system (cytochrome c/dATP). The settings on record: 0.4 μM protein with 10 μM cytochrome c and 1 mM dATP; 37° C., 60 min; baseline about 15%, cytochrome c/dATP alone >95%. The protocol:
as §1
Isolated nuclei were prepared from HeLa cells (Martin et al., supra, 1995). Approximately 5×10^4 to 1×10^5 nuclei were added to 20 μl cytosolic extract and apoptosis was initiated by adding 10 μM horse heart cytochrome c (Sigma, Inc.; St. Louis Mo.) and 1 mM dATP, alone (positive control) or with cytochrome c, dATP and either 0.4 μM GST-XIAP or 0.4 μM GST-Bcl-2. Following incubation at 37° C. for 60 min., nuclei were stained with 1 μg/ml of acridine orange and ethidium bromide and the percentage nuclei with apoptotic features, including extremely condensed chromatin and the genesis of fragmentation of nuclei, was determined.

The test system of experiment [3] is DEVD-pNA hydrolysis activity in 293 cell cytosolic extracts. Put plainly: Cytochrome c/dATP-induced caspase activation (DEVD hydrolysis) in 293 cell cytosolic extracts. The format is biochemical, human. The settings on record: for DEVD-pNA hydrolysis, ΔA405 after 15 min: 293 extracts + cytochrome c/dATP, GST-XIAP 0.2 μM, GST controls 2 μM, His6-S5a 5 μM, untreated ≈0.01; for DEVD hydrolysis in activated 293 cell cytosolic extracts (in words): 3 μM, extracts activated 30 min with cytochrome c and dATP. The protocol:
as §1, §2

For experiment [4], the target named is T1, caspase-7 (Homo sapiens, UniProt P55210).
T1 construct: Purified active caspase concentrations ranged from 0.1 nM to 10 nM; His6; made in house; host or cells: E. coli BL21(DE3)pLysS
T1 sequence (P55210 24-198 limits assumed): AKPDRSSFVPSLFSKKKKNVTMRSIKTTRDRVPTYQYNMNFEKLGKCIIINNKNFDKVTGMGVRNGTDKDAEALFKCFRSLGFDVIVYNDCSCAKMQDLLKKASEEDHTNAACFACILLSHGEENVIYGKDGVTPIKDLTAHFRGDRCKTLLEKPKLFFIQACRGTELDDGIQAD
T1 sequence (P55210 207-303 limits assumed): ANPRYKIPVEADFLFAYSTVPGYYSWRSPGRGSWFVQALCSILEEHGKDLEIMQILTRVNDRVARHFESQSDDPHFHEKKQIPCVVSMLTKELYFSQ
Put plainly: Inhibition of purified recombinant caspase-7, DEVD substrate hydrolysis and progress curves. The format is biochemical. The settings on record: DEVD-pNA hydrolysis.
Experimental: Purified recombinant caspase-1, caspase-3, caspase-6, caspase-7 or caspase-8 were incubated with DEVD-pNA, either alone or with a 10-fold to 50-fold molar excess of GST-XIAP (20 μM) and substrate hydrolysis was measured. Purified active caspase concentrations ranged from 0.1 nM to 10 nM. XIAP concentration ranged from 0.1 nM to 500 nM. Assays were performed in caspase buffer (50 mM Tris, pH 7.4, 100 mM NaCl, 10% sucrose, 5–10 mM DTT, 1 mM EDTA and 0.1% CHAPS).

In another experiment the target is T2, caspase-6 (Homo sapiens, UniProt P55212).
T2 construct: Purified active caspase concentrations ranged from 0.1 nM to 10 nM; His6; made in house; host or cells: E. coli BL21(DE3)pLysS
T2 sequence (P55212 24-179 limits assumed): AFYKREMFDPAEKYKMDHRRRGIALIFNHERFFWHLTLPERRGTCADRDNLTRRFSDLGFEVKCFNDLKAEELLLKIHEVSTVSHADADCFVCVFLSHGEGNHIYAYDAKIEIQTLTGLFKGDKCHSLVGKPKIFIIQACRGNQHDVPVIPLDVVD
T2 sequence (P55212 194-293 limits assumed): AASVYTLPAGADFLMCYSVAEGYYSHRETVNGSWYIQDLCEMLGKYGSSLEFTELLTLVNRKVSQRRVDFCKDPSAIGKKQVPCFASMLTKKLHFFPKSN
The experiment is described as follows: GST pull-down binding to caspase-6. The settings on record: glutathione-Sepharose beads, immunoblot. (In general: Immunoblotting shows a protein as a band on a membrane.)

Experiment [5] deals with T3, caspase-3 (Homo sapiens, UniProt P42574).
T3 construct: to produce the 17–20 kDa mature, fully processed large subunit of the active caspase-3 enzyme; a smaller, fully processed, subunit of about 11 kDa; His6; made in house; host or cells: E. coli BL21(DE3)pLysS
T3 sequence (P42574 29-175 limits assumed): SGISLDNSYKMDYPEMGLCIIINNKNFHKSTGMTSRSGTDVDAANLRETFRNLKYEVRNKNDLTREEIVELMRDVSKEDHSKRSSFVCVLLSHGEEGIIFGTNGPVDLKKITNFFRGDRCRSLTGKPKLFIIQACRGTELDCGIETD
T3 sequence (P42574 176-277 limits assumed): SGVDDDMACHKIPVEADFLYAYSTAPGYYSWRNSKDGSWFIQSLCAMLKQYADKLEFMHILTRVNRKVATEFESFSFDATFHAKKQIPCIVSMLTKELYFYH
The experiment is described as follows: GST pull-down binding to caspase-3. The settings on record: glutathione-Sepharose beads, immunoblot. As to the method:
(§3) Following incubation at 4° C. for 60 min, the beads were removed by centrifugation and washed twice with 100 vol 50 mM Tris (pH 7.5), 150 mM KCl, 2 mM DTT and 0.025% Triton-X100, then subjected to SDS-PAGE and immunoblot assay (see Example I.B.3).

Experiment [6] addresses T3, caspase-3. Put plainly: Inhibition of purified recombinant caspase-3, DEVD substrate hydrolysis and progress curves. The settings on record: DEVD-pNA hydrolysis. In kind it is biochemical. The protocol: Purified recombinant caspase-1, caspase-3, caspase-6, caspase-7 or caspase-8 were incubated with DEVD-pNA, either alone or with a 10-fold to 50-fold molar excess of GST-XIAP ([…]) and substrate hydrolysis was measured. Purified active caspase concentrations ranged from 0.1 nM to 10 nM. XIAP concentration ranged from 0.1 nM to 500 nM. Assays were performed in caspase buffer (50 mM Tris, pH 7.4, 100 mM NaCl, 10% sucrose, 5–10 mM DTT, 1 mM EDTA and 0.1% CHAPS).
Equilibria were determined from progress curves when substrate hydrolysis reached a steady-state; slopes were calculated by curve fit analysis using the cricket graph program. Experiments were performed using purified recombinant caspase-3, caspase-6, or caspase-7. DEVD-AFC hydrolysis was measured using 0.1 nM caspase and a range of concentrations (0.2 to 12 μM) of recombinant XIAP (rXIAP). […] Average ratio velocities (vi/vo, where “vi” indicates presence of GST-XIAP and “vo” indicates absence of GST-XIAP) were determined.
Caspase activity was determined essentially as described in Example II, using the benzylyoxycarbonyl-DEVD-AFC (SEQ ID NO: 2) substrate and was assayed at 37° C. using the Perkin-Elmer LS50B fluorometric plate reader in the kinetic mode with excitation and emission wavelengths of 400 nm and 505 nm, respectively. […] Reactions were performed in caspase buffer (50 mM Hepes, 100 mM NaCl, 1 mM EDTA, 0.1% CHAPS, 10% sucrose, 5 mM DTT). The inhibition constant, Ki, was calculated as described (Zhou et al., supra, 1997). Immunoblot analysis was performed as described in Example I.B.3.

For experiment [7], the target named is T1, caspase-7. Put plainly: GST pull-down binding to caspase-7. The settings on record: glutathione-Sepharose beads, immunoblot. As to the method:
as §3

“Also recorded” adds a separate entry of the source. Where a SMILES comes first, the peptide text is derived from it. The star is where a group is joined. Cbz = O=C(OCc1ccccc1)*; CH2F = FC*

This note sets out measurements from patent US7192728B2, “Screening assays for agents that alter inhibitor of apoptosis (IAP) protein regulation of caspase activity” (The Burnham Institute, priority 1997, dated 2007).

`CC(C)[C@H](NC(=O)OCc1ccccc1)C(=O)N[C@@H](C)C(=O)N[C@@H](CC(=O)O)C(=O)CF` [zVAD-fmk, N-benzyloxycarbonyl-Val-Ala-Asp fluoromethylketone, reference compound] (Cbz-Val-Ala-Asp-CH2F): in the experiment on 293T cells, the “apoptotic cells (PI staining) in Bax expressing cells” value is listed as “about 5%”.
As for “GST-Bcl-2: recombinant control protein, GST fusion of Bcl-2 [reference compound]”, the “DEVD-pNA hydrolysis, ΔA405 after 15 min” value in experiment [1] was “≈ 0.09”; in experiment [3] it was “≈ 0.1”. The “DEVD-pNA hydrolysis, ΔA405 after 20 min” value in experiment [1] is reported as “≈ 0.1”. In experiment [2], the apoptotic nuclei entry is given as “greater than 95%”.

B1: GST-CD40 cytosolic domain: recombinant control protein, GST fusion of CD40 cytosolic domain (protein)
chain: KKVAKKPTNKAPHPKQEPQEINFPDDLPGSNTAAPVQETLHGCQPVTQEDGKESRISVQERQ
modifications: not fully specified; also: GST fusion partner not in chain
Regarding B1, in experiment [1], the “DEVD-pNA hydrolysis, ΔA405 after 15 min” value was “≈ 0.09” and the “DEVD-pNA hydrolysis, ΔA405 after 20 min” value is recorded as “≈ 0.1”. The “inhibition of caspase-7 in vitro (in words)” value in the experiment with caspase-7 [4] is listed as “had no effect”. Further, the “binding of caspase-6 (in words)” value with caspase-6 is “No caspase binding was observed”. For the same molecule, the “binding of caspase-3 (in words)” value with caspase-3 [5] was “No caspase binding was observed; also recorded: did not bind”. For the same molecule, the “inhibition of caspase-3 in vitro (in words)” value with caspase-3 [6] is given as “had no effect”. Besides, in the experiment with caspase-7 [7], the “binding of caspase-7 (in words)” value is listed as “No caspase binding was observed; also recorded: did not bind”. Moreover, the “DEVD-pNA hydrolysis, ΔA405 after 15 min” value in experiment [3] is listed as “≈ 0.1”.

B2: c-IAP-2(BIR): construct comprising the BIR domains of c-IAP-2 (positions 1 to 335) (protein)
chain: MNIVENSIFLSNLMKSANTFELKYDLSCELYRMSTYSTFPAGVPVSERSLARAGFYYTGVNDKVKCFCCGLMLDNWKRGDSPTEKHKKLYPSCRFVQSLNSVNNLEATSQPTFPSSVTNSTHSLLPGTENSGYFRGSYSNSPSNPVNSRANQDFSALMRSSYHCAMNNENARLLTFQTWPLTFLSPTDLAKAGFYYIGPGDRVACFACGGKLSNWEPKDNAMSEHLRHFPKCPFIENQLQDTSRYTVSNLSMQTHAARFKTFFNWPSSVLVNPEQLASAGFYYVGNSDDVKCFCCDGGLRCWESGDDPWVQHAKWFPRCEYLIRIKGQEFIRQVQ
modifications: left off: a dimerising Fc or GST
With B2, the “binding of caspase-3 (in words)” value with caspase-3 [5] was “bound”. Further, the “binding of caspase-7 (in words)” value with caspase-7 [7] is “bound”. In experiment [3], the “DEVD hydrolysis in activated 293 cell cytosolic extracts (in words)” value is on record as “inhibited DEVD hydrolysis”.

B3: c-IAP-1(BIR): construct comprising the BIR domains of c-IAP-1 (positions 1 to 350) (protein)
chain: MHKTASQRLFPGPSYQNIKSIMEDSTILSDWTNSNKQKMKYDFSCELYRMSTYSTFPAGVPVSERSLARAGFYYTGVNDKVKCFCCGLMLDNWKLGDSPIQKHKQLYPSCSFIQNLVSASLGSTSKNTSPMRNSFAHSLSPTLEHSSLFSGSYSSLSPNPLNSRAVEDISSSRTNPYSYAMSTEEARFLTYHMWPLTFLSPSELARAGFYYIGPGDRVACFACGGKLSNWEPKDDAMSEHRRHFPNCPFLENSLETLRFSISNLSMQTHAARMRTFMYWPSSVPVQPEQLASAGFYYVGRNDDVKCFCCDGGLRCWESGDDPWVEHAKWFPRCEFLIRMKGQEFVDEIQG
modifications: left off: a dimerising Fc or GST
Take B3: the “binding of caspase-3 (in words)” value with caspase-3 [5] was “bound”. Moreover, in the experiment with caspase-7 [7], the “binding of caspase-7 (in words)” value is “bound”. For the same molecule, the “DEVD hydrolysis in activated 293 cell cytosolic extracts (in words)” value in experiment [3] was “inhibited DEVD hydrolysis”.
